Reference: article PMC3176505 (Biochemistry, 2009)

Columns and labels:
CCCCC1CCCC(=O)O1 = test: purified protein; conditions: pH 8.3
CCCCCC1CCCC(=O)O1 = test: purified protein; conditions: pH 8.3

Substance | Km (CCCCC1CCCC(=O)O1) [µM] | kcat/Km (CCCCC1CCCC(=O)O1) [M⁻¹ s⁻¹] | Km (CCCCCC1CCCC(=O)O1) [µM] | kcat/Km (CCCCCC1CCCC(=O)O1) [M⁻¹ s⁻¹]
Dr0930 (Deinococcus radiodurans R1 = ATCC 13939 = DSM 20539; Y98F) | 400 ± 20 | 18000 ± 2000 | – | –
Dr0930 (Deinococcus radiodurans R1 = ATCC 13939 = DSM 20539) | 100 ± 20 | 420000 ± 70000 | 80 ± 10 | 200000 ± 20000
Dr0930 (Deinococcus radiodurans R1 = ATCC 13939 = DSM 20539; Y97F) | 200 ± 20 | 1700 ± 100 | – | –
Dr0930 (Deinococcus radiodurans R1 = ATCC 13939 = DSM 20539; Y28F) | 100 ± 20 | 270000 ± 40000 | – | –
